# Experimental data: the DeepSol protein solubility set
# Experiment: soluble on expression in E. coli; label from the status in PepcDB or PDB records
row,Sequence,soluble on expression in E. coli
1,KGNEFEDYCLKRELLMGIFEMGWEKPSPIQEESIPIALSGRDILARAKNGTGKSGAYLIPLLERLDLKKDNIQAMVIVPTRELALQVSQICIQVSKHMGGAKVMATTGGTNLRDDIMRLDDTVHVVIATPGRILDLIKKGVAKVDHVQMIVLDEADKLLSQDFVQIMEDIILTLPKNRQILLYSATFPLSVQKFMNSHLEKPYEIN,soluble
2,KKDFTWKTNLTFSLNRNKIVDLYGDKKDDLANRWFIGQPMKVIYDLEKVGIWQTEDKELAAKYGQVPGHIRVADLDENYVIDERDYKVLGSPSPDWTAGMTNTFTYKNWDLSFYMYARIGGTYNDDFTYMFTAWDNEHWNKLNVKYWTPENHSNEYQQIGAQSYHTQVLGKISGSFLKIQNITLGYTLPENWMKKMKMKNARAYINVQNPFTFTDYLGPDPETIGEDVYKSLSLYPMTFTFGVNLTF,not soluble
3,KKDFTWSSTVTFTANKEKIKSLIEGQDMMFNAKKGDMVFKVGEGVGSFYRYKVLGIWQYSEKETAALFGCEPGDIKLDLPSVKKDGNGYYYMNPEGERVDITAENPYGVRADYDRQVIGRNTPDWTLGFKNNFRYKDFDLSVFLYARWGQMMNYGSVIGKYSPNPDYNIPTYFTYYDKTIEADQDVLFYAIDKSKDRSAYEGYDSMYYVDGSFFKLKNVTLGYTLPGKLTKRFGISNLRVYATMTNLFTYSPNKYVKNYDPEMNGSINFPLSRDCIFGLNLTF,not soluble
4,KKIIHELLDDILFFETAPTIHKVILHGKNRQVEFYGKLKSIEKMLDESFYRCHRSYIVNKKNIHELDTTKGVVKMSNGENCYASSKLIKSLSL,not soluble
5,KKVCACPKILKPVCGSDGRTYANSCIARCNGVSIKSEGSCPTGI,soluble
6,KKVVFFGVGAVGATFAEQFFNSKYDFKILCDNERKKRYLEEGFIINGKRYDFDYVTKDEYKQEADFIIIGLKYNNLKENIKELDGLVGKNTVIMSLLNGVDSEEIIGERFGIEKMVYSYVTNIDAKKINNNIIHTTNGIIVFGNKDNSEDRKTNIITEVFDDVNIEYTLSKDIQRDMWWKYMVNI,not soluble
7,KLEAMKEAEGKEPSETDIKPKRIEEPVLKGFAAPAQTAPAPVSKPAPVAKKKEVEQEAKPGLFSRLFKALGSFLFGGSEEVKEEPKQEEKKSNRDNKRNKRDRNDRRRSNQRDNREGRENRDNRRRRKPREEQANEQNEAQQPANKQQPNRSQKRKPKPQQAEKAQEPKANAKVAEKGLQLAAEARSEVKPEENKAKANAKTEKVKERRQRRKLNKSVRVKDQLADEQVEETAVKAIEPVESQVDQAVDTAADAQQDNKQGESKQRRNRRSPRHLRASGQRRRRGRDRRPNPFRLRKGGVASPEMAMGKVMPRYIPKPAPKKEERVQEETVVAIATVPAMQGGFACPEMAMGKVIIRREQPAVAEAPVVEPKVQETVEAKAESPIVEAVAPEKAEPVAVDQAPVEPIVEVAEAPVAEATTETVVEEAPVQEPVVAETVEEAATEVAVETPVAAPEMKAEVINVVAKPRASAPMTKAPGPQELREIEVAAAPFKAERYQAKGAGSQVATNRASAAMTKPNFN,not soluble
8,KLKSVEKKLSESESRLELALEAANMGTWSWNIKRNEIFWSEQVLYIFGIKPEEFKGDFESYLNLIPSNERVQVEEYITNVLAKLQKEFFFDHSIQTPSGVKKRVYCKGKLYADHAGMPDSMTGVVLDVT,not soluble
9,KMAHIGSWKWDIVTGELYWSDELYLIFGLDPQEFRPAYNSFFNYIHPGDRDFVDNAIKKALNGEQLYDNDHRIISADGEERIVHSHGEVIFDEKNTPVRMRGTLQDIT,not soluble
10,KNYDLIFGDSNTKKYYAQFAKEHKTHLYHQILQSNDEQFRFVENDQTVTSQTPFKS,not soluble
11,KRMYNREKLRKLFDKEETPEVTGLKDNQERFFTYSIRAAHMNINTKSNIKVLKNGEETFPDIFKAMRKAESYIHIEYYMFKSDMLGRGMMDIMMEKARQGVEVRFLYDAAGSMKLARRDIMRMKQAGVDIVPFSPLKYGFFNQKLNFRNHRKIVIIDGKTGFVGGLNVGKEYISRDPYIGFWRDTHLRLEGEIVQTLHAIFMLDWEYVSNEVLIDQEEYNTPVPVEGGGIYQIVATGPDMKESMSDLYYEMISSAQKSIWIATPYFVPNESIRTALKAAATKGVEVRVMVPEKNDSFLTQYASRSYFPELLLEGIEVYSYQKGFMHQKVMIIDGDLASVGTANMDMRSFQLNFEVNVFFTDAEAIRTLEAHFEEDMQESEKLSPVGFYKRGVADR,not soluble
12,KRRLEVKGEVNSITVYDDFAHHPEAILATLTALRDKVGGGVRILAVLEPRSNTMKMGVHKDDIAPALGRADAVFMLQPEQLSWEVADIANQCVQPAYWNANLDRLVDMIVAKAQPTDHILVMSNGSFGGIHQKILDKLKLK,not soluble
13,KVIAGLYQRAFQHLSEAVQAAEEEAQPPSWSCGPAAGVIDAYMTLADFCDQQLRKEEENASVIDSAELQAYPALVVEKMLKALKLNSNEARLKFPRLLQIIERYPEETLSLMTKEISSVPCWQFISWISHMVALLDKDQAVAVQHSVEEITDNYPQAIVYPFIISSESYSFKDTSTGHKNKEFVARIKSKLDQGGVIQDFINALDQLSNPELLFKDWSNDVRAELAKTPVNKKNIEKMYERMYAALGDPKAPGLGAFRRKFIQTFGKEFDKHFGKGGSKLLRMKLSDFNDITNMLLLKMNKDSKPPGNLKECSPWMSDFKVEFLRNELEIPGQYDGRGKPLPEYHVRIAGFDERVTVMASLRRPKRIIIRGHDEREHPFLVKGGEDLRQDQRVEQLFQVMNGILAQDSACSQRALQLRTYSVVPMTSSDPRAPPCEYKDWLTKMSGKHDVGAYMLMYKGANRTETVTSFRKRESKVPADLLKRAFVRMSTSPEAFLALRSHFASSHALICISHWILGIGDRHLNNFMVAMETGGVIGIDFGHAFGSATQFLPVPELMPFRLTRQFINLMLPMKETGLMYSIMVHALRAFRSDPGLLTNTMDVFVKEPSFDWKNFEQKMLKKGGSWIQEINVAEKNWYPRQKICYAKRKLAGANPAVITCDELLLGHEKAPAFRDYVAVARGSKDHNIRAQEPESGLSEETQVKCLMDQATDPNILGRTWEGWEPWM,soluble
14,KVNNIMKKLLSSMILIWGGLISFSNNITGPRHRIEISAGFINDRQNATMGNNIFISNSISYIPEWKIQVNKKFDVTFGPKVVLNFSNFITVSNGTAKAASSSNNANPVTITPSLILGGELDFNYSVKENLKIYTGLEVGTGIGFQISTVGSNVQNPEFRTSSKIALGVKINEKYNIAIYTADIKGLLGLEAGYTF,not soluble
15,KYSLLEIGLKKDNGSSETIKLKREAIKFENNTVKSYIIKDAKKIGYISIPSFYSDDSNPNALGAANELSKEILKLKNENIEGLIIDLRNNGGGSLYEAVGMSGLFIDIGPLFYVLERSGKATLTKDMNRGTVYDGPLCIMVNGYSASASEIFSAAMQDNHRALIVGEQTYGKATGQSISQLDTTKSISTFSATDNMGATKITEIKLYRTSGFSYQGKGVTPDIILPYL,not soluble
16,LADSSDVTEVENYMKANYDVPNNVYFGKAEGKNVIYVSLESLQSFIIDYKIDGKEVTPFLNKLAHDNETFYFDNFFHQTGQGKTSDAEFMMENSLYPLAQGSVFVNKAQNTLQSVPAILKSKNYTSATFHGNTQTFWNRNEMYKAEGIDKFFDSAYYDMNEENTKNYGMKDKPFFKESMPLLESLPQPFYTKFITLSNHFPFGMDEGDTDFPAGDFGDSVVDNYFQSAHYLDQSIEQFFNDLKKDGLYDKSIIVMYGDHYGISENHNKAMAKVLGKDEITDYDNAQLQRVPLFIHAAGVKGEKVHKYAGDVDVAPTILHLLGVDTKDYLMSGSDILSKEHREVIPFRNGDFISPKYTKISGKYYDTKTGKELDESEVDKSEDSLVKKELEMSDKIINGDLLRFYEPKGFKKVNPSDYDYTKHDEDSSETSKDNEDK,soluble
17,LAELFEKAAAHLQGLIQVASREQLLYLYARYKQVKVGNCNTPKPSFFDFEGKQKWEAWKALGDSSPSQAMQEYIAVVKKLDPGWNPQIPEKKGKEA,soluble
18,LDDKTGLGTILNPQATYFDYQATQSGAGSFNYTVKGDNLTATSQIVLAVNAGETPGNNIPVADNITLSTFNNVDAIIDLSAYITDADGDTLRINKLVSASNRFTLNGFQVTFAPDGFVGVDQAVYSVDDGRGGYALAYIVVTSNDANPPAPNTAPVAKDDSLSMDVAKQSVLNINLSGLISDADGDSLKVVTLYSHNDRAVLKENASVDYTPGNFRGVDQFTYLVSDGKGGYDLGTVTVTVGDSTPPTPPTPSLVAYQQAFVLDVDQLQTIDVTQSVTSEHLDAWSLTTVQDSTNLGVVSAKTATTFNYLAQTPGVAQIDYSVQGGSLSANSTITVAINAPVTPDNHRPEAQDTQLETLNNASKTIDLQGKISDVDGDTLSITLHGSARFSLNGTQVTFTPNGFVGLDQAVYSVEDGKGGYALANIVAISEDANPPVPNMAPTANDAQFTLDVAKNVTFNIDLVAQRLIADADGDALSIAHIYTANNRATKQGATGITYTPGAFRGVDQFTYVITDGKDGYAINAITVVVNDSTPANKIPTAGPVTAKMLHNDPAITISVNSAVSDADGDTLKIVSISGALGQASINPANALEMLYEPKGFVGTDRFVYVVSDDNGGYAMGEVTVTVTDSNPTAPVANTVQENTLLDTPINIDLSAYISDKETETANLVISNVTNATSPAVATLSGQTVIYTPNGFTGNDILTYTVTDGRH,not soluble
19,LDINKPENVISKEVSFLGEALPKSIKSECPNESFTLDDKDVVKSTSGSVQNEPLKNINENIYDPKLKKALDKSKPEILIYHSHTTEAYKPYPADSLNSTQNVCAVGDELVKELGEKYGIYAINDKTVHNVVDYNKSYTRSGETLDKYLKQYGDFKMIIDMHRDSDVPKSKVTARINGEDVAKFMFVMTRKNPHFDKNMALVNGLVSICNKDFPGIFNGIYYYDYGINYYNQQKSNNAFLLEVGSDINTIDEAKGTSKYLARIIAEYLNGKK,not soluble
20,LDTTRESIRIGDNLGNVINDPISSREIETQNERDNDLINRYYRPDELEKVKVVDFKPIILNLDELDNDELIMALEEKPAYSRTGVLLSRIDNIRMRIAESAGRLKKDVVRSEESERPAFESERSSSPTTISFN,not soluble
21,LEADKCKEREEKIILVSSANEIDVRPCPLNPNEHKGTITWYKDDSKTPVSTEQASRIHQHKEKLWFVPAKVEDSGHYYCVVRNSSYCLRIKISAKFVENEPNLCYNAQAIFKQKLPVAGDGGLVCPYMEFFKNENNELPKLQWYKDCKPLLLDNIHFSGVKDRLIVMNVAEKHRGNYTCHASYTYLGKQYPITRVIEFITLEENKPTRPVIVSPANETMEVDLGSQIQLICNVTGQLSDIAYWKWNGSVIDEDDPVLGEDYYSVENPANKRRSTLITVLNISEIESRFYKHPFTCFAKNTHGIDAAYIQLIYPVTNFQK,soluble
22,LGGNANAGLEVLKDATAQAIADAKALLAAGKVSVKIQEPCDEILFSRAKVWNGEKWACVTIVGGHTNIVHIETHNGVVFTQQACVTEGEQESPLTVLSRTTLAEILKFVNEVPFAAIRFILDSAKLNCALSQEGLSGNWGLHIGATLEKQCARGLLAKDLSSSIVIRTSAASDARMGGATLPAMSNSGSGNQGITATMPVVVVAEHFGADDERLARALMLSHLSAIYIHNQLPR,not soluble
23,LGKFSQTCYNSAIQGSVLTSTCERTNGGYNTSSIDLNSVIAAVDGSLKWPSNFIEACRNTQLAGSSELAAECKTAAGQFVSTKINLDDHIANIDGTLKYE,soluble
24,LGLERDVSRAVELLERLQRSGELPPQKLQALQRVLQSRFCSAIREVYEQLYDTLDIT,soluble
